The values below come from the supplement of paper PMC12042874.

± gives the uncertainty stated by the source.

A short description of this data set: amyloid nucleation score (Sup35N fusion, yeast selection) (log enrichment); library NNK3; higher = more nucleation; inactive = no reads after selection. The procedure, abridged: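 Random libraries were run with three technical output replicates. In each, psi-negative yeast expressing Sup35N fused to peptides of 20 random codons were induced 24 hours with 100 μM copper sulfate and grown 7 days at 30°C on medium lacking adenine and uracil, and input and output plasmid inserts were Illumina-sequenced. The nucleation score is the DiMSum log enrichment of output over input reads, centred on the mode score of non-aggregating sequences, and sequences under 100 input reads were excluded.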

For QVDHNWF, the amyloid nucleation score entry was “inactive”.
In the case of AFTCYELAGIWRNVTVPCYL it was “inactive”; in that of SLEVLIYDGKCMSCDDVVNG, “inactive”; in that of VMIKSC, “inactive”.
Take FHIPLSQRCLAPFCNAHL: the amyloid nucleation score result is “inactive”.
In the case of NIMYLIWWILGKRHVCNPWE it was -0.805 ± 1.1; in that of WIRSNATFNATGVKFSSTCH, “inactive”.
Then IARSREI, with “inactive”; and LVTIYW, with “inactive”.
In the case of NIIEPFKWTTTSLYNSDFYF it was “inactive”; in that of SCGMERRLIIYSSSHNNILY, 0.178 ± 0.88.
For YLYVRYTFRYWVVNYRYNNG, the amyloid nucleation score result is “inactive”.
In the case of KLNLG it was “inactive”; in that of SSYLNYIFSMTLECIYGC, -0.272 ± 0.47.
Then SHNSHGYFLSVLVVMRMSGR, with “inactive”; and SPQGTVCNQSIFVALPLRVG, with “inactive”.
On to IGVKSYWLRRSYLLFKYWMV, for which the amyloid nucleation score result was “inactive”.
Take EAVSCWSRKNMVRYGNGDRA: the amyloid nucleation score result was “inactive”.
Then DVRIIAV, with “inactive”.
In the case of QYWNFFRFVRGDD it was 0.601 ± 0.14; in that of TEYTILLASRNLFPTR, 0.598 ± 0.25.
On to AIGRTCGKYMYSFGGLHSSH, for which the amyloid nucleation score result was “inactive”.
With MFQGHMSWII, the amyloid nucleation score result was “inactive”.
RWDVEIPNLQICKRT: the amyloid nucleation score result is “inactive”.
In the case of VMYGEVSDTYMAREICKFSA it was “inactive”.
Then VRSKLYGPDVYPTHLGTAVM, with “inactive”.
Then MLDYVF, with “inactive”; and YNFECLIFWSVKYLVCQHIT, with “inactive”.
As to KLTHY, the amyloid nucleation score result was “inactive”.
Then CDFREVTLDY, with “inactive”.
As to LYNYAVSISTLIH, the amyloid nucleation score stood at 0.971 ± 0.2.
With VLLARIDAVFITVLR, the amyloid nucleation score turned out to be 1.25 ± 0.12.
In the case of SIRLIIKELDGNDTCIGVSG it was “inactive”; in that of DVEFI, “inactive”; in that of KVKRFY, 1.17 ± 0.19.
In the case of LLLYLN it was “inactive”; in that of AIALLSPSDYVHSLGFHMVA, “inactive”.
In the case of HGMTIMLGVGWYLWDGSTEG, the amyloid nucleation score is 0.657 ± 0.16.
In the case of PVMLGYGMGYSATVVKGCCL it was “inactive”.
In the case of LPCWKFGLASHR it was “inactive”; in that of NVYNMYS, 0.945 ± 0.22.
Then RWSTLIVTCSAGPSDFVCDG, with “inactive”; and ELDGMTYASDHAFCISRNSS, with “inactive”.
Regarding NYRWTWPMPTQEALTPNSDS, the amyloid nucleation score result is “inactive”.
In the case of EFVDSLLKRGGLFRVFGASS it was “inactive”; in that of FFENWKLGDFAYRRIGTLLK, -0.515 ± 0.66; in that of NWRPV, “inactive”.
For RHYLLCYIKRHTRLQIYKFS, the amyloid nucleation score entry was “inactive”.
In the case of VRSTYGNKGFVSQRGLQFSP it was “inactive”; in that of KDLWCSDSRS, “inactive”; in that of NMLCTSL, 1.21 ± 0.11.
In the case of ISTRPSM it was “inactive”; in that of LDVPWRTFLNGFHSFLT, “inactive”.
Then GMFPVVRNGRWELRCPAVKW, with “inactive”; and YPCEVLGCDAN, with “inactive”.
Consider SSFGFKAK, for which the amyloid nucleation score result is “inactive”.
Regarding FGVYKLSWNP, the amyloid nucleation score is 0.044 ± 0.41.
With TTRRSTYGFEIKYILIVFVH, the amyloid nucleation score entry was “inactive”.
With NKPCYLSSFPQCDHFFVWTD, the amyloid nucleation score entry is “inactive”.
Then PVQRTLVRAVSESFR, with 0.899 ± 0.13; and NLSLLSLVSFEVEVIQCTMR, with “inactive”; and VGGFKTILSIRRAAKCLCVG, with “inactive”.
Then SVNKAWHSRLIVVLYNRLTG, with 0.082 ± 0.18.
In the case of IGFFEFIKELITWKILS it was “inactive”; in that of LQLRSLF, “inactive”.
Turning to IVSWLVRMVSWGVCRK, the amyloid nucleation score result was “inactive”.
With YHCNGPGSLWSTNLACRSME, the amyloid nucleation score entry was “inactive”.
Then STASILFIGVKYVM, with 0.889 ± 0.32; and VAFFSGWQIVVLFMKVL, with “inactive”; and MCDGFVVVNLILFWKVEMI, with “inactive”.
In the case of NSTYSSF it was “inactive”.
In the case of VVCDNYG it was 0.607 ± 0.23.
PRDNILTPQHV: the amyloid nucleation score result was “inactive”.
In the case of LNLYRLPLTPSLSASRMIAY it was “inactive”.
Then MYIVRRKTICET, with “inactive”.
Then PELVFPMLADRPVRAQKLPC, with “inactive”; and YQRVHTSCHHELSIHGSSCT, with “inactive”.
As for SHSLS, the amyloid nucleation score result was “inactive”.
Then HIFSKVSYNFEFPRNDCCRY, with “inactive”; and LQFNISYRMFSEVCVFLLVW, with “inactive”; and IMRLHC, with “inactive”.
With SPVIKRYCILM, the amyloid nucleation score result is “inactive”.
In the case of TVMVKSSYGLNCFGRSF it was 0.743 ± 0.13; in that of DRLHSCYCCTIVHRFYRNYD, “inactive”; in that of DTRFWTARLLYFFI, “inactive”.
Regarding TRRSKGQFIYCPSNGMKCSG, the amyloid nucleation score entry is “inactive”.
In the case of VATKQVVQGLMSPNN it was “inactive”.
Then RELRF, with “inactive”; and VRMTAIFLNLKVWQSNMFVV, with “inactive”.
Then NTCSCTGFTFAAGDV, with -0.33 ± 0.39; and TVRGEVVGPSDNREKIQKQW, with “inactive”.
Take STIQSHCYKVVGV: the amyloid nucleation score entry was “inactive”.
On to SCSCESCYKGVAEYDLVKDV, for which the amyloid nucleation score came to 1.32 ± 0.16.
Regarding LIEWYFDN, the amyloid nucleation score entry is “inactive”.
Then QLLQVWVNMFKTTAISWIVF, with “inactive”; and IWVWVWSYWGRNFLSLVRFV, with “inactive”.
In the case of AGKYIQNYEVKGCLSAYRAG it was “inactive”.
In the case of DARVVGVLDVRDLAKYFWMA it was “inactive”; in that of TKSMVKNLHALPSIKRGVFV, “inactive”.
SNAFSGLRQLPPSNDSLCKG: the amyloid nucleation score result is “inactive”.
Then PTVQCC, with “inactive”; and RKLWLMCYS, with “inactive”.
Take GFMGFVTSHVKMTGNMCNEI: the amyloid nucleation score result is “inactive”.
In the case of DSQVSTTGVMEDRYLPILCF it was “inactive”; in that of YVIGDVIIFPSSFMINCLYC, 2.4 ± 0.081.
With FTLFIQVV, the amyloid nucleation score entry is “inactive”.
In the case of CIDSYLMYVFVAQQPGN it was “inactive”; in that of IQLCTKIYSITKV, “inactive”.
Then SYYAHL, with “inactive”; and VFMIVRQEGSSDFFFDFSSV, with 1.42 ± 0.11; and LSMPMAAGCFKHMPCAA, with -0.643 ± 1.7.
In the case of DWYMTVW it was “inactive”.
Regarding IMVKLSIIIVYC, the amyloid nucleation score turned out to be 1.76 ± 0.083.
On to DLFKMRLGTERGY, for which the amyloid nucleation score result was “inactive”.
Take CHLPQRP: the amyloid nucleation score amounted to 0.989 ± 0.2.
Then FQVEKQF, with “inactive”; and VGSGTQSWVRNEMRSMLDLW, with “inactive”; and SNKSHVCYFSIEFVLISGLS, with “inactive”.
In the case of SRKVYEPKVPLAVSGCRMNV it was “inactive”.
Then ISDTSCHIDTLRFLGRVRFL, with “inactive”; and WLSYIDGSKVELIVQAW, with “inactive”; and QHSSLKWYLYDYRFLLYTVL, with -0.562 ± 0.5.
DSSSDGSLTYDRGRSRSLFE: the amyloid nucleation score result was “inactive”.
Then TDHNDLMKLFATRCSPNPCL, with “inactive”.
In the case of MVYPQLYTTKVVNVVPGLGS it was “inactive”; in that of RGQFYLLVARLNSKM, “inactive”; in that of RMCKTATVIHYGLFINLTEF, “inactive”.
Then HDVFSNYLITVQTFLWLSGV, with “inactive”; and FWKCWAVPDVCFYVWRSGCF, with “inactive”; and GCSTINALCGHLDVVVCIAG, with 1.64 ± 0.094.
Regarding VREFTFYDV, the amyloid nucleation score result is “inactive”.
In the case of PFHGSLDWSTTESAMT it was “inactive”; in that of FYVLHPCAPFVFPHQTTNIT, “inactive”.
Then STLRWLR, with “inactive”.
